Test results as given in the supplement of paper PMC11316812.
± gives the standard deviation of the averaged measurements.

Key:
MCF7 = assay: percentage of EdU-negative (G0-arrested) nuclei per well, 72 h; higher = more G0 arrest; settings: reference: sequence is the full UniProt precursor, the tested protein was the secreted form or ectodomain
hTERT-HMEC = assay: as above; settings: reference: sequence is the full UniProt precursor, the tested protein was the secreted form or ectodomain
[1] = protein concentration 0.0225 µM
[2] = protein concentration 0.00575 µM
[3] = protein concentration 0.0575 µM
[4] = protein concentration 0.0055 µM
[5] = protein concentration 0.00592 µM
[6] = protein concentration 0.0592 µM
[7] = protein concentration 0.0122857 µM
[8] = protein concentration 0.122857 µM
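Note: secreted proteins added to cultured cells, EdU pulse at the end, nuclei found by Hoechst imaging, EdU status from nuclear versus surrounding ring intensity ratio, PBS as neutral control.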

MVMRPLWSLLLWEALLPITVTGAQVLSKVGGSVLLVAARPPGFQVREAIWRSLWPSEELLATFFRGSLETLYHSRFLGRAQLHSNLSLELGPLESGDSGNFSVLMVDTRGQPWTQTLQLKVYDAVPRPVVQVFIAVERDAQPSKTCQVFLSCWAPNISEITYSWRRETTMDFGMEPHSLFTDGQVLSISLGPGDRDVAYSCIVSNPVSWDLATVTPWDSCHHEAAPGKASYKDVLLVVVPVSLLLMLVTLFSAWHWCPCSGKKKKDVHADRVGPETENPLVQDLP [Q9P0V8]
percentage of EdU-negative (MCF7; [1]): 34.5 ± 7.9%
percentage of EdU-negative (MCF7; protein concentration 0.225 µM): 28.8 ± 0.29%
percentage of EdU-negative (hTERT-HMEC; [1]): 7.18 ± 1.4%
percentage of EdU-negative (hTERT-HMEC; protein concentration 0.225 µM): 4 ± 0.28%

MVRPMLLLSLGLLAGLLPALAACPQNCHCHSDLQHVICDKVGLQKIPKVSEKTKLLNLQRNNFPVLAANSFRAMPNLVSLHLQHCQIREVAAGAFRGLKQLIYLYLSHNDIRVLRAGAFDDLTELTYLYLDHNKVTELPRGLLSPLVNLFILQLNNNKIRELRAGAFQGAKDLRWLYLSENALSSLQPGALDDVENLAKFHVDRNQLSSYPSAALSKLRVVEELKLSHNPLKSIPDNAFQSFGRYLETLWLDNTNLEKFSDGAFLGVTTLKHVHLENNRLNQLPSNFPFDSLETLALTNNPWKCTCQLRGLRRWLEAKASRPDATCASPAKFKGQHIRDTDAFRSCKFPTKRSKKAGRH
percentage of EdU-negative (MCF7; [2]): 26.1 ± 0.54%
percentage of EdU-negative (MCF7; [3]): 29 ± 0.99%
percentage of EdU-negative (hTERT-HMEC; [2]): 5.33 ± 0.1%
percentage of EdU-negative (hTERT-HMEC; [3]): 7.33 ± 0.97%

MRLTVLCAVCLLPGSLALPLPQEAGGMSELQWEQAQDYLKRFYLYDSETKNANSLEAKLKEMQKFFGLPITGMLNSRVIEIMQKPRCGVPDVAEYSLFPNSPKWTSKVVTYRIVSYTRDLPHITVDRLVSKALNMWGKEIPLHFRKVVWGTADIMIGFARGAHGDSYPFDGPGNTLAHAFAPGTGLGGDAHFDEDERWTDGSSLGINFLYAATHELGHSLGMGHSSDPNAVMYPTYGNGDPQNFKLSQDDIKGIQKLYGKRSNSRKK
percentage of EdU-negative (MCF7; [4]): 26.4 ± 1.6%
percentage of EdU-negative (MCF7; protein concentration 0.055 µM): 29.9 ± 0.45%
percentage of EdU-negative (hTERT-HMEC; [4]): 5.71 ± 0.72%
percentage of EdU-negative (hTERT-HMEC; protein concentration 0.055 µM): 15 ± 1.8%

MAAQGCAASRLLQLLLQLLLLLLLLAAGGARARWRGEGTSAHLRDIFLGRCAEYRALLSPEQRNKNCTAIWEAFKVALDKDPCSVLPSDYDLFINLSRHSIPRDKSLFWENSHLLVNSFADNTRRFMPLSDVLYGRVADFLSWCRQKNDSGLDYQSCPTSEDCENNPVDSFWKRASIQYSKDSSGVIHVMLNGSEPTGAYPIKGFFADYEIPNLQKEKITRIEIWVMHEIGGPNVESCGEGSMKVLEKRLKDMGFQYSCINDYRPVKLLQCVDHSTHPDCALKSAAAATQRKAPSLYTEQRAGLIIPLFLVLASRTQL
percentage of EdU-negative (MCF7; [1]): 25.74 ± 0.03%
percentage of EdU-negative (MCF7; protein concentration 0.225 µM): 23.5 ± 0.97%
percentage of EdU-negative (hTERT-HMEC; [1]): 5.33 ± 0.28%
percentage of EdU-negative (hTERT-HMEC; protein concentration 0.225 µM): 5.57 ± 1%

MHLLGFFSVACSLLAAALLPGPREAPAAAAAFESGLDLSDAEPDAGEATAYASKDLEEQLRSVSSVDELMTVLYPEYWKMYKCQLRKGGWQHNREQANLNSRTEETIKFAAAHYNTEILKSIDNEWRKTQCMPREVCIDVGKEFGVATNTFFKPPCVSVYRCGGCCNSEGLQCMNTSTSYLSKTLFEITVPLSQGPKPVTISFANHTSCRCMSKLDVYRQVHSIIRRSLPATLPQCQAANKTCPTNYMWNNHICRCLAQEDFMFSSDAGDDSTDGFHDICGPNKELDEETCQCVCRAGLRPASCGPHKELDRNSCQCVCKNKLFPSQCGANREFDENTCQCVCKRTCPRNQPLNPGKCACECTESPQKCLLKGKKFHHQTCSCYRRPCTNRQKACEPGFSYSEEVCRCVPSYWKRPQMS
percentage of EdU-negative (MCF7; [5]): 25.4 ± 0.75%
percentage of EdU-negative (MCF7; [6]): 25.31 ± 0.24%
percentage of EdU-negative (hTERT-HMEC; [5]): 5.07 ± 0.77%
percentage of EdU-negative (hTERT-HMEC; [6]): 5.93 ± 0.55%

MPRGFTWLRYLGIFLGVALGNEPLEMWPLTQNEECTVTGFLRDKLQYRSRLQYMKHYFPINYKISVPYEGVFRIANVTRLQRAQVSERELRYLWVLVSLSATESVQDVLLEGHPSWKYLQEVETLLLNVQQGLTDVEVSPKVESVLSLLNAPGPNLKLVRPKALLDNCFRVMELLYCSCCKQSSVLNWQDCEVPSPQSCSPEPSLQYAATQLYPPPPWSPSSPPHSTGSVRPVRAQGEGLLP [Q6ZMJ4]
percentage of EdU-negative (MCF7; [7]): 25.6 ± 1.6%
percentage of EdU-negative (MCF7; [8]): 27.7 ± 1.3%
percentage of EdU-negative (hTERT-HMEC; [7]): 4.75 ± 0.29%
percentage of EdU-negative (hTERT-HMEC; [8]): 18.4 ± 1.3%

MAVKKIAIFGATGQTGLTTLAQAVQAGYEVTVLVRDSSRLPSEGPRPAHVVVGDVLQAADVDKTVAGQDAVIVLLGTRNDLSPTTVMSEGARNIVAAMKAHGVDKVVACTSAFLLWDPTKVPPRLQAVTDDHIRMHKVLRESGLKYVAVMPPHIGDQPLTGAYTVTLDGRGPSRVISKHDLGHFMLRCLTTDEYDGHSTYPSHQYQ
percentage of EdU-negative (MCF7; [1]): 22.7 ± 3%
percentage of EdU-negative (MCF7; protein concentration 0.225 µM): 23.37 ± 0.19%
percentage of EdU-negative (hTERT-HMEC; [1]): 5.08 ± 0.64%
percentage of EdU-negative (hTERT-HMEC; protein concentration 0.225 µM): 5.64 ± 0.7%
